The values below come from patent publication US20140179594A1, “STREPTOCOCCUS BACTERIOPHAGE LYSINS FOR TREATMENT OF GRAM POSITIVE BACTERIA IN COMPANION ANIMALS AND LIVESTOCK” (priority 2011, published 2014).

This assay relates to S. sobrinus 6715. As to the kind of experiment: ΔPlySs1 OD600 lysis, 1 hr. Type of assay: cell-based.

B1: ΔPlySs1: truncated PlySs1 lysin with N-terminal enzymatic and central binding domains, N-terminal 254 amino acids, SEQ ID NO:2 (protein, listed as Streptococcus suis)
chain: MTINLETSIRWMSDRVGKVSYSMDYRNGPNSYDCSSAVYYALMAGGAISAGWAVNTEYMHDWLIRNGYVLVAENKPFNAQRHDVCILGKRGYSSGAGGHVVIFVDNVNVIHCNYARNGISIDNYNQVHRGMYYYLYRPANQPSISNKSLDQLVKETLAGVHGNGDTRKASLGSQYEAVMAVINGKASASEKSDEELAREVLAGKHGAGEDRKRSLGPRYEPVQAKVNELLKAKEKPSETAKNEPQTVQFKEDGDL
Consider B1, for which the “1-hour treated/untreated OD600-ratio” value reads like this: (6.5 μg/ml) 0.64; (13 μg/ml) 0.48; (30 μg/ml) 0.39; (65 μg/ml) 0.32; (130 μg/ml) 0.23.
